Target: T1, homoserine dehydrogenase (Hom) (Corynebacterium glutamicum, UniProt P08499, R407H)
T1 construct: each supernatant was recovered through two centrifugations (13,000 rpm, 4° C., 30 minutes) and used as a crude extract for measuring the activity of Hom; endogenous in cells; host or cells: Crude cell extracts of Corynebacterium glutamicum ATCC13032 (wild type) and of CA09-0900 (ATCC13032 with chromosomal hom R407H)
Test: Measurement of Hom activity (U) and desensitization by L-threonine in crude extracts
Assay type: biochemical
Conditions: 10 mM L-threonine, compared with wild-type Hom
Method: The activity of the enzyme Hom was measured in the prepared strain. The wild-type strain ATCC13032 (the control group) and the CA09-0900 strain prepared in Example 4 were each inoculated into 25 mL of the seed medium and cultured until the strains reached the late log phase. The cells of each strain were recovered by centrifugation, washed twice with a 0.1 M potassium phosphate buffer (pH 7.6), and finally suspended in 2 mL of the same buffer containing glycerol at a concentration of 30%. Each cell suspension was physically disrupted by a conventional glass bead vortexing method for 10 minutes, and each supernatant was recovered through two centrifugations (13,000 rpm, 4° C., 30 minutes) and used as a crude extract for measuring the activity of Hom. For the measurement of the activity of Hom, a […] (0.1 mL) was added to a reaction solution for measuring the enzyme activity (a potassium phosphate (pH 7.0) buffer, 25 mM NADPH, 5 mM aspartate semi-aldehyde) and reacted at 30° C. The Hom enzyme activity U was defined as the number of NADPH consumed per minute according to the presence of L-threonine (0 mM, 10 mM), and the measurement results of the enzyme activity are shown in Table 2 below.

B1: Hom including the R407H modification: modified homoserine dehydrogenase, arginine at position 407 substituted with histidine (protein)
chain: MTSASAPSFNPGKGPGSAVGIALLGFGTVGTEVMRLMTEYGDELAHRIGGPLEVRGIAVSDISKPREGVAPELLTEDAFALIEREDVDIVVEVIGGIEYPREVVLAALKAGKSVVTANKALVAAHSAELADAAEAANVDLYFEAAVAGAIPVVGPLRRSLAGDQIQSVMGIVNGTTNFILDAMDSTGADYADSLAEATRLGYAEADPTADVEGHDAASKAAILASIAFHTRVTADDVYCEGISNISAADIEAAQQAGHTIKLLAICEKFTNKEGKSAISARVHPTLLPVSHPLASVNKSFNAIFVEAEAAGRLMFYGNGAGGAPTASAVLGDVVGAARNKVHGGRAPGESTYANLPIADFGETTTRYHLDMDVEDRVGVLAELASLFSEQGISLRTIRQEERDDDAHLIVVTHSALESDLSRTVELLKAKPVVKAINSVIRLERD
modifications: homoserine dehydrogenase R407H
notes: modified homoserine dehydrogenase, arginine at position 407 substituted with histidine
  desensitization to L-threonine: the inhibition of the activity was reduced

— patent US10982244B2, “Modified homoserine dehydrogenase and method for producing homoserine or L-amino acid derived from homoserine using the same” (CJ CHEILJEDANG CORPORATION, priority 2018, dated 2021)
